The text below walks through data of patent publication US20080306007A1, “AGENTS FOR PROPHYLAXIS OR TREATMENT OF NEUROLOGICAL RELATED DISEASES AND CONDITIONS” (Newcastle Innovation Limited, priority 2007, published 2008).

The test system of series [1] is cerebellar granule neurons (CGNs). The series can be described thus: FM4-64 SV turnover in transfected cerebellar granule neurons (Example 1). The series is classed as cell-based, rat. Conditions: for total SV recycling pool (FM4-64): two sequential KCl stimuli. Here is the method:
Primary cerebellar granule neuron (CGN) cultures were prepared from 7-day old Sprague-Dawley rat pups as previously described (Tan et al. 2003). In brief, neurons were plated on poly-D-lysine coated glass coverslips at a density of 1.5×10^5 cells/coverslip. Neurons were cultured in MEM containing Earle's salts plus 10% (v/v) foetal calf serum, 25 mM KCl, 30 mM glucose, 2 mM glutamine, 100 U/ml penicillin and 100 μg/ml streptomycin at 37° C., in a humidified atmosphere of 5% CO2. The culture medium was supplemented with 10 μM cytosine arabinoside after 24 hours. Transfections were carried out using an established calcium phosphate precipitation protocol. CGNs were transiently transfected with 1.5 μg of DNA between 7-10 days in vitro and were used 48 h later.
The effect of overexpression of dynamin I-GFP constructs on SV recycling in CGNs was monitored using the styryl dye FM4-64 (Molecular Probes). The extent of FM4-64 loading was quantified by normalising the fluorescence value at the start of stimulation to an arbitrary value and monitoring the total decrease on unloading with a dual KCl stimulus. The rate of FM4-64 unloading (as a measure of SV exocytosis) was estimated by determining the time taken for individual nerve terminals to lose 50% of their dye content on stimulation of unloading. These values were normalised to untransfected nerve terminals within the same field of view. SV exocytosis and recycling was also monitored using the pH-sensitive VAMP-GFP (synaptopHluorin). Dynamin constructs linked to mCerulean rather than to GFP were used in this part of the study. CGNs were co-transfected with synaptopHluorin and either DynI^WT-mCerulean, DynI^dmA-mCerulean or Dyn^dmE-mCerulean and stimulated with 50 mM KCl for 20 sec. The evoked synaptopHluorin response was recorded at 500 nm excitation and 510-550 nm emission (mCerulean fluorescence was not detectable at this wavelength). Co-expression of dynamin I was confirmed by recording at 430 nm excitation. Responses were analysed by calculating the increased fluorescence of synaptopHluorin over baseline for individual nerve terminals and then normalising the maxima and minima to 1 and 0.
To show the key role of the phosphorylation sites by independent methods in cultured neurons their role in SV turnover in nerve terminals of CGNs transfected with dynamin I-GFP was examined. SV turnover in neurons transfected with DynI^WT-GFP was indistinguishable from that in untransfected neurons (FIG. 6a-c). […] The extent of HM4-64 accumulation and thus SV turnover, was quantified from the change in fluorescence (AF) by unloading the CGN terminals with two sequential KCl stimuli (S1 and S2) (FIG. 6j). The total SV recycling pool was reduced by approximately 70% in CGNs transfected with DynI^dmA-GFP (28±3.5% of control) and 40% with DynI^dmE-GFP (64.4±6.2% of control) (FIG. 6k). However, transfection of DynI^WT-GFP had no detectable effect (100.1±5.2% of control, FIG. 6k).

For series [2] the test system is unchanged. The series can be described thus: FM4-64 synaptic vesicle recycling in transfected CGNs (Example 2). The series is classed as cell-based, rat. Conditions: single 50 mM KCl stimulus. Here is the method:
The effect of overexpression of dynamin constructs on synaptic vesicle recycling in CGNs was monitored using the styryl dye FM4-64. Neurons were removed from the culture medium and left to repolarise for 10 min in incubation medium (170 mM NaCl, 3.5 mM KCl, 0.4 mM KH2PO4, 20 mM TES (N-tris[hydroxy-methyl]-methyl-2-aminoethane-sulphonic acid), 5 mM NaHCO3, 5 mM glucose, 1.2 mM Na2SO4, 1.2 mM MgCl2, 1.3 mM CaCl2, pH 7.4). Neurons were then loaded with FM4-64 by evoking SV recycling using KCl stimulation medium (incubation medium supplemented with 50 mM KCl and 10 μM FM4-64, 50 mM NaCl being removed to maintain osmolarity) for 2 min. Cells were washed with incubation medium and mounted on an epifluorescence microscope (Olympus IX81). After 10 min, FM4-64 was unloaded from the cells by exposure to a 30 s pulse of stimulation medium. Transfected neurons were visualised using a Olympus Plan-Apochromat x40 objective at 480 nm excitation and a band-pass emission filter of 515-555 nm. FM4-64 unloading was monitored at 555 nm excitation and a long pass emission filter of 600 nm. The decrease in fluorescence intensity of FM4-64 loaded nerve terminals on stimulation was visualised using a Hammamatsu Orca-ERG CCD digital camera (Hammamatsu City, Japan) and Metamorph 6.3 imaging software (Molecular Devices, Downingtown, Pa.). The extent of FM4-64 unloading was quantified by normalising the fluorescence value at the start of stimulation to an arbitrary value and monitoring the total decrease in fluorescence on unloading with the KCl stimulus. The kinetics of FM4-64 unloading were estimated by normalising the start and completion of unloading to 1 and 0 respectively. Other methods employed in this study are as described in Example 1.
Synaptic vesicle turnover in neurons transfected with DynI-WT-GFP was indistinguishable from that in untransfected neurons. […] The extent of synaptic vesicle turnover was quantified by unloading the terminals with a single 50 mM KCl stimulus, which is considered mild. The total synaptic vesicle recycling pool was unaffected in CGNs transfected with DynI-WT-GFP, while after transfection with DynI-2B-GFP it was reduced. The inhibition can be solely accounted for by an effect on SV endocytosis, since there was no effect on the kinetics of dye unloading. Next, the effects of DynI-PB2-GFP and DynI-3B-GFP on SVE were examined. These two mutants were chosen since they specifically fail to bind syndapin I and endophilin I, respectively, providing a clear distinction between them.
Again, there was no effect on exocytosis, indicating an inhibition of SVE.

B1: DynI^dmA-GFP: Transfected GFP-tagged dynamin I double mutant, Ser-774 and Ser-778 to Ala (non-phosphorylatable) (protein)
chain: MGNRGMEDLIPLVNRLQDAFSAIGQNADLDLPQIAVVGGQSAGKSSVLENFVGRDFLPRGSGIVTRRPLVLQLVNSTTEYAEFLHCKGKKFTDFEEVRLEIEAETDRVTGTNKGISPVPINLRVYSPHVLNLTLVDLPGMTKVPVGDQPPDIEFQIRDMLMQFVTKENCLILAVSPANSDLANSDALKIAKEVDPQGQRTIGVITKLDLMDEGTDARDVLENKLLPLRRGYIGVVNRSQKDIDGKKDITAALAAERKFFLSHPSYRHLADRMGTPYLQKVLNQQLTNHIRDTLPGLRNKLQSQLLSIEKEVDEYKNFRPDDPARKTKALLQMVQQFAVDFEKRIEGSGDQIDTYELSGGARINRIFHERFPFELVKMEFDEKELRREISYAIKNIHGIRTGLFTPDLAFEATVKKQVQKLKEPSIKCVDMVVSELTSTIRKCSEKLQQYPRLREEMERIVTTHIREREGRTKEQVMLLIDIELAYMNTNHEDFIGFANAQQRSNQMNKKKTSGNQDEILVIRKGWLTINNIGIMKGGSKEYWFVLTAENLSWYKDDEEKEKKYMLSVDNLKLRDVEKGFMSSKHIFALFNTEQRNVYKDYRQLELACETQEEVDSWKASFLRAGVYPERVGDKEKASETEENGSDSFMHSMDPQLERQVETIRNLVDSYMAIVNKTVRDLMPKTIMHLMINNTKEFIFSELLANLYSCGDQNTLMEESAEQAQRRDEMLRMYHALKEALSIIGDINTTTVSTPMPPPVDDSWLQVQSVPAGRRAPTSAPTPQRRAPAVPPARPGSRGPAPGPPPAGSALGGAPPVPSRPGASPDPFGPPPQVPSRPNRAPPGVPSRSGQASPSRPESPRPPFDL
modifications: left off: large carriers
For B1, in series [1], the “reduction of total SV recycling pool / SV turnover” value was “approximately 70%” and the “total SV recycling pool (FM4-64)” value is recorded as 28±3.5 % of control.

B2: DynI^dmE-GFP: Transfected GFP-tagged dynamin I double mutant, Ser-774 and Ser-778 to Glu (pseudo-phosphorylation) (protein)
chain: MGNRGMEDLIPLVNRLQDAFSAIGQNADLDLPQIAVVGGQSAGKSSVLENFVGRDFLPRGSGIVTRRPLVLQLVNSTTEYAEFLHCKGKKFTDFEEVRLEIEAETDRVTGTNKGISPVPINLRVYSPHVLNLTLVDLPGMTKVPVGDQPPDIEFQIRDMLMQFVTKENCLILAVSPANSDLANSDALKIAKEVDPQGQRTIGVITKLDLMDEGTDARDVLENKLLPLRRGYIGVVNRSQKDIDGKKDITAALAAERKFFLSHPSYRHLADRMGTPYLQKVLNQQLTNHIRDTLPGLRNKLQSQLLSIEKEVDEYKNFRPDDPARKTKALLQMVQQFAVDFEKRIEGSGDQIDTYELSGGARINRIFHERFPFELVKMEFDEKELRREISYAIKNIHGIRTGLFTPDLAFEATVKKQVQKLKEPSIKCVDMVVSELTSTIRKCSEKLQQYPRLREEMERIVTTHIREREGRTKEQVMLLIDIELAYMNTNHEDFIGFANAQQRSNQMNKKKTSGNQDEILVIRKGWLTINNIGIMKGGSKEYWFVLTAENLSWYKDDEEKEKKYMLSVDNLKLRDVEKGFMSSKHIFALFNTEQRNVYKDYRQLELACETQEEVDSWKASFLRAGVYPERVGDKEKASETEENGSDSFMHSMDPQLERQVETIRNLVDSYMAIVNKTVRDLMPKTIMHLMINNTKEFIFSELLANLYSCGDQNTLMEESAEQAQRRDEMLRMYHALKEALSIIGDINTTTVSTPMPPPVDDSWLQVQSVPAGRREPTSEPTPQRRAPAVPPARPGSRGPAPGPPPAGSALGGAPPVPSRPGASPDPFGPPPQVPSRPNRAPPGVPSRSGQASPSRPESPRPPFDL
modifications: left off: large carriers
Consider B2, for which, in series [1], the “reduction of total SV recycling pool / SV turnover” value was about 40% and the “total SV recycling pool (FM4-64)” value is given as 64.4±6.2 % of control.

B3: DynI-PB2-GFP: GFP-tagged dynamin I with Arg-772 and Arg-773 mutated to Glu; fails to bind syndapin I (protein)
chain: MGNRGMEDLIPLVNRLQDAFSAIGQNADLDLPQIAVVGGQSAGKSSVLENFVGRDFLPRGSGIVTRRPLVLQLVNSTTEYAEFLHCKGKKFTDFEEVRLEIEAETDRVTGTNKGISPVPINLRVYSPHVLNLTLVDLPGMTKVPVGDQPPDIEFQIRDMLMQFVTKENCLILAVSPANSDLANSDALKIAKEVDPQGQRTIGVITKLDLMDEGTDARDVLENKLLPLRRGYIGVVNRSQKDIDGKKDITAALAAERKFFLSHPSYRHLADRMGTPYLQKVLNQQLTNHIRDTLPGLRNKLQSQLLSIEKEVDEYKNFRPDDPARKTKALLQMVQQFAVDFEKRIEGSGDQIDTYELSGGARINRIFHERFPFELVKMEFDEKELRREISYAIKNIHGIRTGLFTPDLAFEATVKKQVQKLKEPSIKCVDMVVSELTSTIRKCSEKLQQYPRLREEMERIVTTHIREREGRTKEQVMLLIDIELAYMNTNHEDFIGFANAQQRSNQMNKKKTSGNQDEILVIRKGWLTINNIGIMKGGSKEYWFVLTAENLSWYKDDEEKEKKYMLSVDNLKLRDVEKGFMSSKHIFALFNTEQRNVYKDYRQLELACETQEEVDSWKASFLRAGVYPERVGDKEKASETEENGSDSFMHSMDPQLERQVETIRNLVDSYMAIVNKTVRDLMPKTIMHLMINNTKEFIFSELLANLYSCGDQNTLMEESAEQAQRRDEMLRMYHALKEALSIIGDINTTTVSTPMPPPVDDSWLQVQSVPAGEESPTSSPTPQRRAPAVPPARPGSRGPAPGPPPAGSALGGAPPVPSRPGASPDPFGPPPQVPSRPNRAPPGVPSRSGQASPSRPESPRPPFDL
modifications: left off: large carriers
Take B3: the “total synaptic recycling pool (FM4-64)” value in series [2] was 59.5±4.3 % of control.
